The numbers were not newly measured in paper PMC11087511, which cites them from elsewhere.

One series concerns the target factor Xa (Homo sapiens) (UniProt P00742). Conditions: cited from earlier work.
The target of series [1] is factor Xa within prothrombinase (Homo sapiens) (UniProt P00742). As to conditions: cited from earlier work.
factor Xa within prothrombinase (Homo sapiens), sequence (P00742 41-179, chain 1 of 2): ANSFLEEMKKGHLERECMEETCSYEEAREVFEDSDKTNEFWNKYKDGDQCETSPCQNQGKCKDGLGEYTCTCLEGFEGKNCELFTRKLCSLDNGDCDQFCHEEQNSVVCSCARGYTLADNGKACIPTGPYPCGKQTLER
factor Xa within prothrombinase (Homo sapiens), sequence (P00742 235-488, chain 2 of 2): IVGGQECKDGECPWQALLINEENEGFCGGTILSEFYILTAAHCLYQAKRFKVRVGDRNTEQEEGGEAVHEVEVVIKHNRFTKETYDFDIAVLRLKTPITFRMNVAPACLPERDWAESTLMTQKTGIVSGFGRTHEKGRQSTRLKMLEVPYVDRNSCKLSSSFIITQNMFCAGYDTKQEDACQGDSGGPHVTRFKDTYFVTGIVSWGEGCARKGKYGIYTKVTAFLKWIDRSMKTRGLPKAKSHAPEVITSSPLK

Tick anticoagulant peptide (TAP), sequence (P17726 whole entry): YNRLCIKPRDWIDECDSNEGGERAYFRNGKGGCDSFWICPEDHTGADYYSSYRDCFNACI
factor Xa (Homo sapiens), sequence (P00742 235-488): as the sequence (P00742 235-488, chain 2 of 2) above

Regarding “Tick anticoagulant peptide (TAP) (from UniProt P17726)”, the Ki with factor Xa (Homo sapiens) is 0.18 nM; in series [1] it was 0.0053 nM.
